Reference: patent publication US6387638
Changes are numbered by the printed parent chain. Numbers in names are those of the source. Like-named read-outs stand apart in the source and are kept apart here. Ends that are not written are not given here.

Columns and labels:
[1] = biological target: T1, ErbB-4 receptor-Ig fusion (homodimer) (human, UniProt Q15303 26-651; Q15303 26-640); assay: phage ELISA, soluble ErbB-4-Ig as competitor
[2] = biological target: T2, ErbB-3 receptor-Ig fusion (homodimer) (human, UniProt P21860 20-643; P21860 20-636); assay: phage ELISA, soluble ErbB-3-Ig as competitor
T2 sequence (P21860 other isoform, or with tags, fused parts or gaps): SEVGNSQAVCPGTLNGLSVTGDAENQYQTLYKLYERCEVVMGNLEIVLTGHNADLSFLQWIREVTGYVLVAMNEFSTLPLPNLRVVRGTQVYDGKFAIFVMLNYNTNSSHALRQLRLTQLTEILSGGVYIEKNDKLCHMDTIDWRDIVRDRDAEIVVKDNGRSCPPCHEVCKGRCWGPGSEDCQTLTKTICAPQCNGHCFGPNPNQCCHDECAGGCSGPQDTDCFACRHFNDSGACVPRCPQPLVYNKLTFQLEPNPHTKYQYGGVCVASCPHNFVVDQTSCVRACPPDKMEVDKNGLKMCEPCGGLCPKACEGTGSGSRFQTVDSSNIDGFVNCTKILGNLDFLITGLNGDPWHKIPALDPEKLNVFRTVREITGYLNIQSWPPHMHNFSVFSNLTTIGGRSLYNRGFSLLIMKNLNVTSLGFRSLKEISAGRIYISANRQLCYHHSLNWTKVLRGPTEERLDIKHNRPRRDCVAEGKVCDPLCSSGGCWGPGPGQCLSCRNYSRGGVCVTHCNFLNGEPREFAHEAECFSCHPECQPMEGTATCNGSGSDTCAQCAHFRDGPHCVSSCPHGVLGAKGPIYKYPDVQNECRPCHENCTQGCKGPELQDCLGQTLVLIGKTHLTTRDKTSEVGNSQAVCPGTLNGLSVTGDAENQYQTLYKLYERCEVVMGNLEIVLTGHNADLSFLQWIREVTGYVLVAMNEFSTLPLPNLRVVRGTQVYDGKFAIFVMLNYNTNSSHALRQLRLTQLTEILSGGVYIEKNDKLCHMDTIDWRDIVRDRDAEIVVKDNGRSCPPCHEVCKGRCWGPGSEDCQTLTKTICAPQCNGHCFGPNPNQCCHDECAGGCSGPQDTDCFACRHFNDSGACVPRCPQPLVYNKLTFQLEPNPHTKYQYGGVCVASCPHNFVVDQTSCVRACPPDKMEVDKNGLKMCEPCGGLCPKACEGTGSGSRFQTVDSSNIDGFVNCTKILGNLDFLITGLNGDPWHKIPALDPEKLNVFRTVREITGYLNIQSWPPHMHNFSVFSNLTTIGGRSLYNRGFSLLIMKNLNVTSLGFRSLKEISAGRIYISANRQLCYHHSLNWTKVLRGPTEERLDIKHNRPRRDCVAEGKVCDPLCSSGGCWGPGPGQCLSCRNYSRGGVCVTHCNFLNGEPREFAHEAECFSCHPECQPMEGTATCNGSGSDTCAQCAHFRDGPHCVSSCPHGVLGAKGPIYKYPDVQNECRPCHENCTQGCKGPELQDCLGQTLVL

[3] = biological target: T2, ErbB-3 receptor-Ig fusion (homodimer); assay: phage ELISA, soluble ErbB-3-Ig as competitor; remark: listed apart in the source
[4] = biological target: T1, ErbB-4 receptor-Ig fusion (homodimer); assay: phage ELISA, soluble ErbB-4-Ig as competitor; remark: listed apart in the source
[5] = biological target: T2, ErbB-3 receptor-Ig fusion (homodimer); assay: phage ELISA, soluble ErbB-3-Ig as competitor; remark: listed apart in the source
[6] = biological target: T1, ErbB-4 receptor-Ig fusion (homodimer); assay: phage ELISA, soluble ErbB-4-Ig as competitor; remark: listed apart in the source
[7] = biological target: T1, ErbB-4 receptor-Ig fusion (homodimer); assay: phage ELISA, soluble ErbB-4-Ig as competitor; remark: listed apart in the source
[8] = biological target: T2, ErbB-3 receptor-Ig fusion (homodimer); assay: phage ELISA, soluble ErbB-3-Ig as competitor; remark: listed apart in the source

T1 sequence (Q15303 other isoform, or with tags, fused parts or gaps): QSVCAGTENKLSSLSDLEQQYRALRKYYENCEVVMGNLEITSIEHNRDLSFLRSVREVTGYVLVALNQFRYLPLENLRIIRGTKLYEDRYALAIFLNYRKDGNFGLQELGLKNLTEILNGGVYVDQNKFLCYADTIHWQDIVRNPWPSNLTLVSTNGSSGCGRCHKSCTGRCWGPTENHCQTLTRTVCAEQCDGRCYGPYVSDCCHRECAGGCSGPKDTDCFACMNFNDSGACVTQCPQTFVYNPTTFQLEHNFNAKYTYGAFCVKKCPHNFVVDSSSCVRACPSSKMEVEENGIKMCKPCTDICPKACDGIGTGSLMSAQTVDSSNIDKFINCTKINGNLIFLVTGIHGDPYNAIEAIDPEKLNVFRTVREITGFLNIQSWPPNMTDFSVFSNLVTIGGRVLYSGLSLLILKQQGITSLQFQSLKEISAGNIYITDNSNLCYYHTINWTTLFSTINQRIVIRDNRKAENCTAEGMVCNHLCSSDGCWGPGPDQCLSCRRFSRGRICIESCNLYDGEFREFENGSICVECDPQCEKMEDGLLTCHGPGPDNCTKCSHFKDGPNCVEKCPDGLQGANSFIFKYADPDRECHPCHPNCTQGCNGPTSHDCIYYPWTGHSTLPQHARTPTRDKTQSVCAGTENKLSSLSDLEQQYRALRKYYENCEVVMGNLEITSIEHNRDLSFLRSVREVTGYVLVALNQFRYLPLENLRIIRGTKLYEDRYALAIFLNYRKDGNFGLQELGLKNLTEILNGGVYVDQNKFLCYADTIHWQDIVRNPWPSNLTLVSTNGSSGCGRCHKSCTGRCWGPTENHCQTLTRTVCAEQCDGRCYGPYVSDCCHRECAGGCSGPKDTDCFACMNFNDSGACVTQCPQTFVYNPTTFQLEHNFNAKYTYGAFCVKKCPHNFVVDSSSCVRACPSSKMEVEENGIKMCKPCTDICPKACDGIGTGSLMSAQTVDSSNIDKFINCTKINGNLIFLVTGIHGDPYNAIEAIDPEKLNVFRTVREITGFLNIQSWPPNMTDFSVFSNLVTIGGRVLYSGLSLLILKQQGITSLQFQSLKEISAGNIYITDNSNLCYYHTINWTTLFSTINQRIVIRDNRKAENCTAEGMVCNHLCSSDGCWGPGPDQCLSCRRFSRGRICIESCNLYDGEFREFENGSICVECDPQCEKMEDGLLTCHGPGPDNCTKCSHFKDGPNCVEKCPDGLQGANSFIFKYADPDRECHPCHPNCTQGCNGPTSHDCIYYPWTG

How did the EC50 Mut/WT [1] turn out when “HRG-β1 177-244 H178L, phage-displayed (Example 4 clone) (from UniProt P69168 265-424) (ligand)” was run?
The EC50 Mut/WT was 1.2.

And the EC50 Mut/WT [2]?
The EC50 Mut/WT was 1.4.

Which EC50 Mut/WT [1] does the source give for “HRG-β1 177-244 L179V, phage-displayed (Example 4 clone) (from UniProt P69168 265-424) (ligand)” here?
Its EC50 Mut/WT is 1.6.

What about the EC50 Mut/WT [2] of the same molecule?
The EC50 Mut/WT was 1.5.

B1: HRG-β1 177-244 F216A, phage-displayed (ligand, phage M13)
chain: SHLVKCAEKEKTFCVNGGECFMVKDLSNPSRYLCKCPNEATGDRCQNYVMASFYKHLGIEFMEAEELYGGSGGGSGSGDFDYEKMANANKGAMTENADENALQSDAKGKLDSVATDYGAAIDGFIGDVSGLANGNGATGDFAGSNSQMAQVGDGDNSPLMNNFRQYLPSLPQSVECRPFVFSAGKPYEFSIDCDKINLFRGVFAFLLYVATFMYVASTFANILRNKES
notes: range 247-end
For B1, which EC50 [3] is on record?
The EC50 was 500 nM.

B2: HRG-β1 177-244 L179M, phage-displayed (Example 4 clone) (ligand)
chain: SHMVKCAEKEKTFCVNGGECFMVKDLSNPSRYLCKCPNEFTGDRCQNYVMASFYKHLGIEFMEAEELY
notes: not shown: Display carrier only: the M13 pIII C-terminal fragment from residue 247
How did the “EC50 Mut/WT” value [4] turn out when B2 was run?
Its value is 1.5 ratio.

What about the “EC50 Mut/WT” value [5] of the same molecule?
Its value is 1.2 ratio.

B3: HRG-β1 177-244 H178E L179V, phage-displayed (Example 4 clone) (ligand)
chain: B2 chain with H2E, M3V
notes: also called E V ·; not shown: M13 pIII C-terminal fragment (fusion point pIII 247), the phage display partner
With B3 as the molecule, how does the “EC50 Mut/WT” value [4] read?
The value was 1.7 ratio.

What about the “EC50 Mut/WT” value [5] of the same molecule?
The value was 0.8 ratio.

B4: HRG-β1 177-244 F189A, phage-displayed (ligand)
chain: B2 chain with M3L, F13A
B4 was tested. Which EC50 [3] did it give?
Its EC50 is 892 nM.

And the EC50 [6]?
The EC50 was 106 nM.

B5: HRG-β1 177-244 H178T L179M, phage-displayed (Example 4 clone) (ligand)
chain: B2 chain with H2T
notes: also called T M ·; not shown: M13 pIII C-terminal fragment (fusion point pIII 247), the phage display partner
Which results are given for B5?
EC50 Mut/WT [4]: 1.6 ratio; EC50 Mut/WT [5]: 1.4 ratio

B6: HRG8: wild-type HRG-β1 177-228 (HRG-β1 EGF 1-52) fused via (GGGS)3 to pIII 323, phage-displayed (ligand, phage M13)
chain: SHLVKCAEKEKTFCVNGGECFMVKDLSNPSRYLCKCPNEFTGDRCQNYVMASGGGSGGGSGGGSNSQMAQVGDGDNSPLMNNFRQYLPSLPQSVECRPFVFSAGKPYEFSIDCDKINLFRGVFAFLLYVATFMYVFSTFANILRNKES
notes: range 323-end; Monovalent M13 phage display; also called wild-type HRG-β1 EGF-phage
Which results are given for B6?
EC50(wt)/EC50(mut) [7]: 1 ratio; EC50(wt)/EC50(mut) [8]: 1 ratio

B7: HRG-β1 EGF variant D4, phage-displayed (ligand)
chain: SHLVKCAEKEKTFCVNGGECYRVKTLSNPSRYLCKCPNEFTGDRCQNYVMAS
modifications: not fully specified; cysteine pairing not given here
notes: pHRG8-g3 scaffold; not shown: Display carrier only: the (GGGS)3 linker and the M13 pIII C-terminal fragment from residue 323
What does the source list for B7?
EC50(wt)/EC50(mut) [7]: 5 ratio; EC50(wt)/EC50(mut) [8]: 2.9 ratio
